Assay results taken from PMC4003909 (Structure (London, England : 1993), 2013).

Key:
[1] = molecular target: BCOR PUFD (1634-1748) with METR leader, co-expressed and purified with PCGF1 RAWUL (human, UniProt Q6W2J9 1634-1748); assay: AUC
[2] = molecular target: T1, BCORL1 PUFD (1594-1711) with METR leader, co-expressed and purified with PCGF1 RAWUL (human, UniProt Q5H9F3-1 1594-1711); assay: AUC
T1 sequence: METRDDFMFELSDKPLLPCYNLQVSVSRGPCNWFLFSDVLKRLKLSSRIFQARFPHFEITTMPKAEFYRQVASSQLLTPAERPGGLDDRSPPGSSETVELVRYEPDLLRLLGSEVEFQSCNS

B1: PCGF1 RAWUL (167-255), co-expressed and purified with a PUFD (domain or fragment, human, UniProt Q9BSM1 167-255, looked up)
chain: EQLNLCLERLSSGKDKNKSVLQNKYVRCSVRAEVRHLRRVLCHRLMLNPQHVQLLFDNEVLPDHMTMKQIWLSRWFGKPSPLLLQYSVK
Question: What does the source list for B1?
Answer: Kd [1]: < 8.5 µM; Kd [2]: < 8.5 µM
